{"source": "patent US20200405854A1", "about": "“Combination Therapies Comprising Daratumumab, Bortezomib, Thalidomide and Dexamethasone and Their Uses” (Janssen Biotech, Inc., priority 2019, published 2020)", "key": {"[1]": {"system": "adult patients with relapsed and refractory multiple myeloma", "test": "Monotherapy safety, three open-label clinical trials", "format": "in vivo, human", "text": "Serious adverse reactions were reported in 51 (33%) patients."}, "[2]": {"system": "patients with relapsed or refractory multiple myeloma", "test": "Study GEN501 open-label dose escalation monotherapy trial, efficacy", "format": "in vivo, human", "text": "Treatment continued until unacceptable toxicity or disease progression.\nSeventy-four percent of patients had received prior ASCT. Prior therapies included bortezomib (100%), lenalidomide (95%), pomalidomide (36%) and carfilzomib (19%)."}}, "data": [{"substance": "DARZALEX: immunoglobulin G1 kappa (IgG1κ) human monoclonal antibody against CD38 antigen; HC SEQ ID NO: 9, LC SEQ ID NO: 10", "values": [{"measurement": "Pain in extremity", "setting": "[1]; Any Grade", "result": 15, "unit": "%"}, {"measurement": "Pneumonia", "setting": "[1]; Any Grade", "result": 11, "unit": "%"}, {"measurement": "Pyrexia", "setting": "[1]; Any Grade", "result": 21, "unit": "%"}, {"measurement": "Thrombocytopenia, laboratory abnormality", "setting": "[1]; Any Grade", "result": 48, "unit": "%"}, {"measurement": "Upper respiratory tract infection", "setting": "[1]; Any Grade", "result": 20, "unit": "%"}, {"measurement": "Vomiting", "setting": "[1]; Any Grade", "result": 14, "unit": "%"}, {"measurement": "Anemia, laboratory abnormality", "setting": "[1]; Grade 3", "result": 19, "unit": "%"}, {"measurement": "Arthralgia", "setting": "[1]; Grade 3", "result": 0, "unit": "%"}, {"measurement": "Back pain", "setting": "[1]; Grade 3", "result": 2, "unit": "%"}, {"measurement": "Chills", "setting": "[1]; Grade 3", "result": 0, "unit": "%"}, {"measurement": "Constipation", "setting": "[1]; Grade 3", "result": 0, "unit": "%"}, {"measurement": "Cough", "setting": "[1]; Grade 3", "result": 0, "unit": "%"}, {"measurement": "Decreased appetite", "setting": "[1]; Grade 3", "result": 1, "unit": "%"}, {"measurement": "Diarrhea", "setting": "[1]; Grade 3", "result": 1, "unit": "%"}, {"measurement": "Dyspnea", "setting": "[1]; Grade 3", "result": 1, "unit": "%"}, {"measurement": "Fatigue", "setting": "[1]; Grade 3", "result": 2, "unit": "%"}, {"measurement": "Headache", "setting": "[1]; Grade 3", "result": 1, "unit": "%"}, {"measurement": "Hypertension", "setting": "[1]; Grade 3", "result": 5, "unit": "%"}, {"measurement": "Infusion reaction", "setting": "[1]; Grade 3", "result": 3, "unit": "%"}, {"measurement": "Lymphopenia, laboratory abnormality", "setting": "[1]; Grade 3", "result": 30, "unit": "%"}, {"measurement": "Musculoskeletal chest pain", "setting": "[1]; Grade 3", "result": 1, "unit": "%"}, {"measurement": "Nasal congestion", "setting": "[1]; Grade 3", "result": 0, "unit": "%"}, {"measurement": "Nasopharyngitis", "setting": "[1]; Grade 3", "result": 0, "unit": "%"}, {"measurement": "Nausea", "setting": "[1]; Grade 3", "result": 0, "unit": "%"}, {"measurement": "Neutropenia, laboratory abnormality", "setting": "[1]; Grade 3", "result": 17, "unit": "%"}, {"measurement": "Pain in extremity", "setting": "[1]; Grade 3", "result": 1, "unit": "%"}, {"measurement": "Pneumonia", "setting": "[1]; Grade 3", "result": 6, "unit": "%"}, {"measurement": "Pyrexia", "setting": "[1]; Grade 3", "result": 1, "unit": "%"}, {"measurement": "Thrombocytopenia, laboratory abnormality", "setting": "[1]; Grade 3", "result": 10, "unit": "%"}, {"measurement": "Upper respiratory tract infection", "setting": "[1]; Grade 3", "result": 1, "unit": "%"}, {"measurement": "Vomiting", "setting": "[1]; Grade 3", "result": 0, "unit": "%"}, {"measurement": "Anemia, laboratory abnormality", "setting": "[1]; Grade 4", "result": 0, "unit": "%"}, {"measurement": "Arthralgia", "setting": "[1]; Grade 4", "result": 0, "unit": "%"}, {"measurement": "Back pain", "setting": "[1]; Grade 4", "result": 0, "unit": "%"}, {"measurement": "Chills", "setting": "[1]; Grade 4", "result": 0, "unit": "%"}, {"measurement": "Constipation", "setting": "[1]; Grade 4", "result": 0, "unit": "%"}, {"measurement": "Cough", "setting": "[1]; Grade 4", "result": 0, "unit": "%"}, {"measurement": "Decreased appetite", "setting": "[1]; Grade 4", "result": 0, "unit": "%"}, {"measurement": "Diarrhea", "setting": "[1]; Grade 4", "result": 0, "unit": "%"}, {"measurement": "Dyspnea", "setting": "[1]; Grade 4", "result": 0, "unit": "%"}, {"measurement": "Fatigue", "setting": "[1]; Grade 4", "result": 0, "unit": "%"}, {"measurement": "Headache", "setting": "[1]; Grade 4", "result": 0, "unit": "%"}, {"measurement": "Hypertension", "setting": "[1]; Grade 4", "result": 0, "unit": "%"}, {"measurement": "Infusion reaction", "setting": "[1]; Grade 4", "result": 0, "unit": "%"}, {"measurement": "Lymphopenia, laboratory abnormality", "setting": "[1]; Grade 4", "result": 10, "unit": "%"}, {"measurement": "Musculoskeletal chest pain", "setting": "[1]; Grade 4", "result": 0, "unit": "%"}, {"measurement": "Nasal congestion", "setting": "[1]; Grade 4", "result": 0, "unit": "%"}, {"measurement": "Nasopharyngitis", "setting": "[1]; Grade 4", "result": 0, "unit": "%"}, {"measurement": "Nausea", "setting": "[1]; Grade 4", "result": 0, "unit": "%"}, {"measurement": "Neutropenia, laboratory abnormality", "setting": "[1]; Grade 4", "result": 3, "unit": "%"}, {"measurement": "Pain in extremity", "setting": "[1]; Grade 4", "result": 0, "unit": "%"}, {"measurement": "Pneumonia", "setting": "[1]; Grade 4", "result": 0, "unit": "%"}, {"measurement": "Pyrexia", "setting": "[1]; Grade 4", "result": 0, "unit": "%"}, {"measurement": "Thrombocytopenia, laboratory abnormality", "setting": "[1]; Grade 4", "result": 8, "unit": "%"}, {"measurement": "Upper respiratory tract infection", "setting": "[1]; Grade 4", "result": 0, "unit": "%"}, {"measurement": "Vomiting", "setting": "[1]; Grade 4", "result": 0, "unit": "%"}, {"measurement": "serious adverse reactions", "setting": "[1]; monotherapy 16 mg/kg, 156 patients", "result": 33, "unit": "%"}, {"measurement": "CR, number of patients", "setting": "[2]; 16 mg/kg, 42 patients", "result": 1}, {"measurement": "Overall response rate", "setting": "[2]; 16 mg/kg, 42 patients", "result": 36, "unit": "%"}, {"measurement": "VGPR, number of patients", "setting": "[2]; 16 mg/kg, 42 patients", "result": 3}, {"measurement": "median duration of response", "setting": "[2]; in vivo", "result": "not estimable"}, {"measurement": "median time to response", "setting": "[2]; in vivo", "result": 1, "unit": "month"}]}]}
